{"source": "patent US20160369010A1", "about": "(AstraZeneca / MedImmune, published 2016)", "binders": {"B1": {"name": "PC9#6 GLP-1 analogue heavy chain fusion (antibody, IgG1)", "VH": "HGEGTFTSDVSSYLEEQAAKEFIAWLVKGGGGGGGSGGGGSGGGGSAQVQLVQSGAEVKKPGSSVKVSCKASGGTFNSHAISWVRQAPGQGLEWMGGINPILGIANYAQKFQGRVTITADESTSTAYMELSSLRSEDTAVYYCARHYEIQIGRYGMNVYYLMYRFASWGQGTLVTVSS", "VL": "DIQMTQSPSSLSASVGDRVTITCRASQGIRSALNWYQQKPGKAPKLLIYNGSTLQSGVPSRFSGSGSGTDFTLTISSLQPEDFAVYYCQQFDGDPTFGQGTKVEIK", "notes": "IgG1-TM; descriptive name; also called heavy chain peptide antibody fusion of PC9#6"}, "B2": {"name": "PC9#6 GLP-1 analogue light chain fusion (antibody, IgG1)", "VH": "QVQLVQSGAEVKKPGSSVKVSCKASGGTFNSHAISWVRQAPGQGLEWMGGINPILGIANYAQKFQGRVTITADESTSTAYMELSSLRSEDTAVYYCARHYEIQIGRYGMNVYYLMYRFASWGQGTLVTVSS", "VL": "HGEGTFTSDVSSYLEEQAAKEFIAWLVKGGGGGGGSGGGGSGGGGSADIQMTQSPSSLSASVGDRVTITCRASQGIRSALNWYQQKPGKAPKLLIYNGSTLQSGVPSRFSGSGSGTDFTLTISSLQPEDFAVYYCQQFDGDPTFGQGTKVEIK", "notes": "IgG1-TM; descriptive name; also called light chain peptide antibody fusion of PC9#6"}, "B3": {"name": "PC9#1 GLP-1 analogue light chain fusion (antibody, IgG1)", "VH": "QVQLVQSGAEVKKPGASVKVSCKASGYTFTSYYMHWVRQAPGQGLEWMGEISPFGGRTNYNEKFKSRVTMTRDTSTSTVYMELSSLRSEDTAVYYCARERPLYASDLWGQGTTVTVSS", "VL": "HGEGTFTSDVSSYLEEQAAKEFIAWLVKGGGGGGGSGGGGSGGGGSADIQMTQSPSSLSASVGDRVTITCRASQGISSALAWYQQKPGKAPKLLIYSASYRYTGVPSRFSGSGSGTDFTFTISSLQPEDIATYYCQQRYSLWRTFGQGTKLEIK", "notes": "IgG1-TM; peptide-linker at the N-terminus of VL; descriptive name; also called light chain peptide antibody fusion of PC9#1"}, "B4": {"name": "HS9_DSB7_V19A_L0 (antibody, IgG1)", "VH": "B3 VH with F54S, R57S, N59S, E62Q, K65Q, S66G", "light": "not shown", "notes": "VH see m27; IgG1-TM"}, "B5": {"name": "HS9_DSB7_V19A_L1 (antibody, IgG1)", "VH": "B3 VH with F54S, R57S, N59S, E62Q, K65Q, S66G", "light": "not shown", "notes": "VH see m27; IgG1-TM"}, "B6": {"name": "HS9_DSB7_V19A_L2 (antibody, IgG1)", "VH": "B3 VH with F54S, R57S, N59S, E62Q, K65Q, S66G", "light": "not shown"}, "B7": {"name": "PC9#1 GLP-1 analogue heavy chain fusion (antibody, IgG1)", "VH": "HGEGTFTSDVSSYLEEQAAKEFIAWLVKGGGGGGGSGGGGSGGGGSAQVQLVQSGAEVKKPGASVKVSCKASGYTFTSYYMHWVRQAPGQGLEWMGEISPFGGRTNYNEKFKSRVTMTRDTSTSTVYMELSSLRSEDTAVYYCARERPLYASDLWGQGTTVTVSS", "VL": "DIQMTQSPSSLSASVGDRVTITCRASQGISSALAWYQQKPGKAPKLLIYSASYRYTGVPSRFSGSGSGTDFTFTISSLQPEDIATYYCQQRYSLWRTFGQGTKLEIK", "notes": "IgG1-TM; peptide-linker at the N-terminus of VH; also called heavy chain peptide antibody fusion of PC9#1"}, "B8": {"name": "PC9#5 GLP-1 analogue light chain fusion (antibody, IgG1, V domains shown)", "VH": "EMQLVESGGGLVQPGGSLRLSCAASGFTFSSHWMKWVRQAPGKGLEWVANINQDGSEKYYVDSVKGRFTISRDNAKNSLFLQMNSLRAEDTAVYYCARDIVLMVYDMDYYYYGMDVWGQGTTVTVSS", "VL": "not shown", "notes": "IgG1-TM; descriptive name; also called light chain peptide antibody fusion of PC9#5"}, "B9": {"name": "PC9#5_DSB7_V19A (antibody, IgG1, V domains shown)", "VH": "B8 VH", "VL": "not shown", "notes": "IgG1-TM"}, "B10": {"name": "PC9#5 GLP-1 analogue heavy chain fusion (antibody, IgG1)", "VH": "HGEGTFTSDVSSYLEEQAAKEFIAWLVKGGGGGGGSGGGGSGGGGSAEMQLVESGGGLVQPGGSLRLSCAASGFTFSSHWMKWVRQAPGKGLEWVANINQDGSEKYYVDSVKGRFTISRDNAKNSLFLQMNSLRAEDTAVYYCARDIVLMVYDMDYYYYGMDVWGQGTTVTVSS", "VL": "not shown", "notes": "IgG1-TM; descriptive name; also called heavy chain peptide antibody fusion of PC9#5"}, "B11": {"name": "PC9#7 GLP-1 analogue heavy chain fusion (antibody, IgG1)", "VH": "HGEGTFTSDVSSYLEEQAAKEFIAWLVKGGGGGGGSGGGGSGGGGSAQVQLVQSGAEVKKPGESLKISCKGSGYSFTNYWISWVRQMPGKGLEWMGIIYPGDSYTNYSPSFQGQVTISADKSISTAYLQWSSLKASDTAMYYCARDYWYKPLFDIWGQGTLVTVSS", "VL": "not shown", "notes": "IgG1-TM; descriptive name; also called heavy chain peptide antibody fusion of PC9#7"}, "B12": {"name": "Fusion 2.7A4 DSB7 V19A (antibody)", "VH": "EVQLVESGGGLVKPGGSLRLSCAASGFTFSTYSMNWVRQAPGKGLEWVSSISSSGDYIYYADSVKGRFTISRDNAKNSLYLQMNSLRAEDTAVYYCARDLVTSMVAFDYWGQGTLVTVSS", "VL": "HGEGTFTSDLSKQMEEECARLFIEWLKNGGPSSGAPPPGCGGGGGSGGGGSGGGGSASYELTQPPSVSVSPGQTARITCSGDALPQKYVFWYQQKSGQAPVLVIYEDSKRPSGIPERFSGSSSGTMATLTISGAQVEDEADYYCYSTDRSGNHRVFGGGTKLTVL", "notes": "Peptide-linker on the light chain of the anti-B7-H1 antibody"}, "B13": {"name": "anti-B7-H1 antibody 2.7A4 (antibody, V domains shown)", "VH": "B12 VH", "VL": "SYELTQPPSVSVSPGQTARITCSGDALPQKYVFWYQQKSGQAPVLVIYEDSKRPSGIPERFSGSSSGTMATLTISGAQVEDEADYYCYSTDRSGNHRVFGGGTKLTVL"}, "B14": {"name": "PC9#3 GLP-1 analogue light chain fusion (antibody, IgG1)", "VH": "EVQLVESGGGLVQPGGSLRLSCAASGFTFNNYAMNWVRQAPGKGLDWVSTISGSGGTTNYADSVKGRFIISRDSSKHTLYLQMNSLRAEDTAVYYCAKDSNWGNFDLWGRGTLVTVSS", "VL": "HGEGTFTSDVSSYLEEQAAKEFIAWLVKGGGGGGGSGGGGSGGGGSADIVMTQSPDSLAVSLGERATINCKSSQSVLYRSNNRNFLGWYQQKPGQPPNLLIYWASTRESGVPDRFSGSGSGTDFTLTISSLQAEDVAVYYCQQYYTTPYTFGQGTKLEIK", "notes": "IgG1-TM; descriptive name; also called light chain peptide antibody fusion of PC9#3"}, "B15": {"name": "PC9#3_DSB7_V19A (antibody, IgG1)", "VH": "B14 VH", "VL": "HGEGTFTSDLSKQMEEECARLFIEWLKNGGPSSGAPPPGCGGGGGSGGGGSGGGGSADIVMTQSPDSLAVSLGERATINCKSSQSVLYRSNNRNFLGWYQQKPGQPPNLLIYWASTRESGVPDRFSGSGSGTDFTLTISSLQAEDVAVYYCQQYYTTPYTFGQGTKLEIK", "notes": "IgG1-TM"}, "B16": {"name": "PC9#7 GLP-1 analogue light chain fusion (antibody)", "VH": "QVQLVQSGAEVKKPGESLKISCKGSGYSFTNYWISWVRQMPGKGLEWMGIIYPGDSYTNYSPSFQGQVTISADKSISTAYLQWSSLKASDTAMYYCARDYWYKPLFDIWGQGTLVTVSS", "VL": "HGEGTFTSDVSSYLEEQAAKEFIAWLVKGGGGGGGSGGGGSGGGGSADIVMTQSPDSLAVSLGERATINCRSSQSVLYSSNNKNYLAWYQQKPGQPPKLLIYWASTRESGVPDRFSGSGSGTDFTLTISSLQAEDVAVYYCQQYSSFPITFGQGTKVEIK"}}, "key": {"[1]": {"biological_target": "T1, Recombinant human Avi_PCSK9_Flag_His (human, UniProt Q8NBP7 31-692, biotinylated in the HTRF and LDL-R competition assays)", "T1 construct": "In-house protein; also called human PCSK9; huPCSK9", "experiment": "HTRF epitope competition: unlabelled compound titrated against a DyLight 650-labelled anti-PCSK9 antibody for biotinylated human PCSK9; % specific binding [panel F]", "description": "(§1) PCSK9 activity of each peptide-antibody fusions was assessed using Homogenous Time Resolved Fluorescence (HTRF) epitope competition assays.\n(§2) For the assay all samples and reagents were prepared in assay buffer containing 1X Phosphate Buffered Saline, 0.1% BSA (Sigma A9576) and 0.4M Potassium Fluoride. Test samples of peptide-antibody fusions or control antibodies were prepared in 384 well polypropylene plates by 3-fold serial dilutions. […] Delta F% was then calculated using the following equation."}, "[2]": {"biological_target": "T1, Recombinant human Avi_PCSK9_Flag_His", "experiment": "HTRF epitope competition: unlabelled compound titrated against a DyLight 650-labelled anti-PCSK9 antibody for biotinylated human PCSK9; % specific binding [panel F]", "remark": "listed apart in the source", "description": "as §1, §2"}, "[3]": {"biological_target": "T1, Recombinant human Avi_PCSK9_Flag_His", "experiment": "HTRF epitope competition: unlabelled compound titrated against a DyLight 650-labelled anti-PCSK9 antibody for biotinylated human PCSK9; % specific binding [panel A]", "description": "as §1, §2"}, "[4]": {"biological_target": "T1, Recombinant human Avi_PCSK9_Flag_His", "experiment": "binding ELISA: human PCSK9 coated at 10 ug/mL, compound at 100 ug/mL, detection with cryptate-labelled Fc-specific anti-human IgG; fluorescence counts", "description": "(§3) After plate blocking with 1× Phosphate Buffered Saline, 3% skimmed milk, compounds were added at 100 ug/mL in PBS and incubated for 2 h at room temperature before washing. Bound compounds were detected using cryptate labelled Fc specific anti human IgG (Perkin Elmer) diluted at 100 ng/mL in Delfia Buffer (Perkin Elmer)."}, "[5]": {"biological_target": "T1, Recombinant human Avi_PCSK9_Flag_His", "experiment": "HTRF epitope competition: unlabelled compound titrated against a DyLight 650-labelled anti-PCSK9 antibody for biotinylated human PCSK9; % specific binding [panel A]", "remark": "listed apart in the source", "description": "as §1, §2"}, "[6]": {"biological_target": "T1, Recombinant human Avi_PCSK9_Flag_His", "experiment": "HTRF epitope competition: unlabelled compound titrated against a DyLight 650-labelled anti-PCSK9 antibody for biotinylated human PCSK9; % specific binding [panel E]", "description": "as §1, §2"}, "[7]": {"biological_target": "T1, Recombinant human Avi_PCSK9_Flag_His", "experiment": "binding ELISA on coated human PCSK9 (10 ug/mL), compound at 100 ug/mL, detection with cryptate labelled Fc specific anti human IgG", "description": "as §3"}, "[8]": {"biological_target": "T1, Recombinant human Avi_PCSK9_Flag_His", "experiment": "HTRF epitope competition: unlabelled compound titrated against a DyLight 650-labelled anti-PCSK9 antibody for biotinylated human PCSK9; % specific binding [panel E]", "remark": "listed apart in the source", "description": "as §1, §2"}, "[9]": {"biological_target": "T1, Recombinant human Avi_PCSK9_Flag_His", "experiment": "HTRF epitope competition: unlabelled compound titrated against a DyLight 650-labelled anti-PCSK9 antibody for biotinylated human PCSK9; % specific binding", "description": "as §1, §2"}, "[10]": {"biological_target": "T2, recombinant human B7-H1 (in house) (human, UniProt Q9NZQ7 19-238, limits assumed)", "T2 sequence (Q9NZQ7 19-238 limits assumed)": "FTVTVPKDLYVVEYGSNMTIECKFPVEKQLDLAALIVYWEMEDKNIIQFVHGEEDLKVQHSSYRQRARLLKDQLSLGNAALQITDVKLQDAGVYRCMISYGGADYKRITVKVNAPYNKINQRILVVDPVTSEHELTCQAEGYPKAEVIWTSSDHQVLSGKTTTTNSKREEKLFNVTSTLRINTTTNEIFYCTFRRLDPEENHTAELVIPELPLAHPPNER", "experiment": "binding ELISA on coated human B7-H1 (5 ug/mL), compound at 10 ug/mL, detection with cryptate labelled Fc specific anti human IgG", "description": "(§4) Binding ELISA was performed by coating human B7-H1 (in house) at 5 ug/mL in 1× Phosphate Buffered Saline. After plate blocking with 1×Phosphate Buffered Saline, 3% skimmed milk, compounds were added at 10 ug/mL in PBS and incubated for 2 h at room temperature before washing."}, "[11]": {"biological_target": "T2, recombinant human B7-H1 (in house)", "experiment": "binding ELISA on coated human B7-H1 (5 ug/mL), compound at 10 ug/mL, detection with cryptate labelled Fc specific anti human IgG; positive control", "description": "as §4"}, "[12]": {"biological_target": "T1, Recombinant human Avi_PCSK9_Flag_His", "experiment": "HTRF epitope competition: unlabelled compound titrated against a DyLight 650-labelled anti-PCSK9 antibody for biotinylated human PCSK9; % specific binding [panel C]", "description": "as §1, §2"}, "[13]": {"biological_target": "T1, Recombinant human Avi_PCSK9_Flag_His"}}, "note": "Substitutions are numbered along the chain they refer to. Where two headings read alike, the source gives them in different places.", "data": [{"binder": "B1", "values": [{"measurement": "IC50 (read off the curve)", "setting": "[1]", "result": "~0.6", "unit": "nM"}]}, {"binder": "B2", "values": [{"measurement": "binding result", "setting": "[2]", "result": "binds"}]}, {"binder": "B3", "values": [{"measurement": "IC50 (read off the curve)", "setting": "[3]", "result": "~0.1", "unit": "nM"}]}, {"binder": "B4", "values": [{"measurement": "binding result", "setting": "[4]", "result": "binds"}]}, {"binder": "B5", "values": [{"measurement": "binding result", "setting": "[4]", "result": "binds"}]}, {"binder": "B6", "values": [{"measurement": "binding result", "setting": "[4]", "result": "binds"}]}, {"binder": "B7", "values": [{"measurement": "IC50 (read off the curve)", "setting": "[5]", "result": "~0.06", "unit": "nM"}]}, {"binder": "B8", "values": [{"measurement": "IC50 (read off the curve)", "setting": "[6]", "result": "~6", "unit": "nM"}]}, {"binder": "B9", "values": [{"measurement": "binding result", "setting": "[7]", "result": "binds"}]}, {"binder": "B10", "values": [{"measurement": "IC50 (read off the curve)", "setting": "[8]", "result": "~0.1", "unit": "nM"}]}, {"binder": "B11", "values": [{"measurement": "IC50 (read off the curve)", "setting": "[9]", "result": "~0.1", "unit": "nM"}]}, {"binder": "B12", "values": [{"measurement": "binding result", "setting": "[10]", "result": "binds"}]}, {"binder": "B13", "values": [{"measurement": "binding result", "setting": "[11]", "result": "binds"}]}, {"binder": "B14", "values": [{"measurement": "IC50 (read off the curve)", "setting": "[12]", "result": "~0.4", "unit": "nM"}]}, {"binder": "B15", "values": [{"measurement": "binding result", "setting": "[7]", "result": "binds"}]}, {"binder": "B16", "values": [{"measurement": "IC50 (read off the curve)", "setting": "[13]", "result": "~1", "unit": "nM"}]}]}
